Experimental findings from publication PMC12440807 are described below.

The series has as its target RNA polymerase II;RECQL5;CSB;CSA-DDB1;UVSSA;ELOF1 (Sus scrofa domesticus?;Homo …, UniProt A0A8D1DPV6;A0A0B8RVL1;P19387;O15514;I3LSI7;P61218;P62487;P52434;P36954;P52435;P6 …, |||||). Put plainly: cryo-EM; 1 mM ADP; phosphorylated Pol II; glutaraldehyde cross-linked; 3.5 A; EMSA: 20 mM HEPES pH 7.5, 66 mM NaCl, 5% glycerol, 1 mM DTT, 0.25 mg/ml BSA, on ice 30 min; 6% gel, 0.5x TBE, 4 C. The settings on record: protein: native;recombinant;recombinant;recombinant;recombinant;recombinant; copies: 1;1;1;1;1;1;1;1;1;1;1;1;1;1;1;1;1;1; 15-nt mismatch bubble; RNA 45 nt, 3' end hybridized to template.

B1: EC-TCR DNA-RNA scaffold (mixed)
DNA 1: CGCTCTGCTCCTTCTCCCATCCTCTCGATGGCTATGAGATCAACTAG
DNA 2: CTAGTTGATCTCATATTTCATTCCTACTCAGGAGAAGGAGCAGAGCG
RNA: ACAUCAUAACAUUUGAACAAGAAUAUAUAUACAAAAUCGAGAGGA
B1: the binding result was “binds”.
